Test results: the supplement of paper PMC9732359
± gives the uncertainty stated by the source.

Assay: protein stability index of a GFP-peptide fusion (yeast GPS) (PSI 1-4); higher = more stable; sorted into four equal gates, so the index is relative within each strain
In short: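 The protein stability index of a peptide was calculated by multiplying its read frequency in each gate by that gate's number and adding the products. The peptides were tiled 17-residue stretches of yeast proteins, fused downstream of GFP on a Cherry-expressing plasmid and carried in yeast as a pooled library. Mid-log cultures in leucine-free medium were sorted into four equal gates by GFP/Cherry ratio, and each gate's plasmids were PCR-amplified and Illumina-sequenced.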

EREIMNDHSKSANPKKT [SWI3]
protein stability index (doa10∆): 3.29 ± 0.077 | protein stability index (pdr5∆): 3.3 ± 0.084 | protein stability index (san1∆): 3.3 ± 0.16 | protein stability index (ubr1∆): 3.31 ± 0.065

LQQKHELDTASRILKAQ [YGR119C/NUP57]
protein stability index (doa10∆): 2.73 ± 0.045 | protein stability index (pdr5∆): 2.83 ± 0.046 | protein stability index (san1∆): 2.53 ± 0.052 | protein stability index (ubr1∆): 3.03 ± 0.034

VLRLNAIPLLKVLRKFR [NUT1]
protein stability index (doa10∆): 1.98 ± 0.052 | protein stability index (pdr5∆): 2.21 ± 0.054 | protein stability index (san1∆): 2.06 ± 0.084 | protein stability index (ubr1∆): 2.3 ± 0.038

NVLNQIHQILLPTNPTL [CSE2]
protein stability index (doa10∆): 2.65 ± 0.036 | protein stability index (pdr5∆): 2.74 ± 0.037 | protein stability index (san1∆): 2.14 ± 0.05 | protein stability index (ubr1∆): 2.42 ± 0.035

RVRHEDVETVKREIQEA [RPC53]
protein stability index (pdr5∆): 3 ± 0.17

SEKRLDHFIHLRNLHMK [SNF12]
protein stability index (doa10∆): 2.75 ± 0.051 | protein stability index (pdr5∆): 2.73 ± 0.043 | protein stability index (san1∆): 2.74 ± 0.052 | protein stability index (ubr1∆): 2.62 ± 0.037

PAANESEVANNGLIISW [RRP42]
protein stability index (doa10∆): 1.43 ± 0.15 | protein stability index (pdr5∆): 1.49 ± 0.052 | protein stability index (san1∆): 1.13 ± 0.28 | protein stability index (ubr1∆): 1.4 ± 0.072

VTVDQYVNVAISIYNML [SSN2]
protein stability index (doa10∆): 1.72 ± 0.057 | protein stability index (pdr5∆): 1.88 ± 0.062 | protein stability index (san1∆): 1.52 ± 0.12 | protein stability index (ubr1∆): 1.44 ± 0.052

KFLILNENPINKIMTNQ [NUT1]
protein stability index (doa10∆): 2.9 ± 0.11 | protein stability index (pdr5∆): 2.75 ± 0.1 | protein stability index (san1∆): 2.67 ± 0.07 | protein stability index (ubr1∆): 2.99 ± 0.089

SKKRKLNSLTNLLSKRN [SNM1]
protein stability index (doa10∆): 2.87 ± 0.071 | protein stability index (pdr5∆): 2.99 ± 0.059 | protein stability index (san1∆): 2.84 ± 0.055 | protein stability index (ubr1∆): 2.81 ± 0.057

DPSISNNIRQAICRYAN [RRP4]
protein stability index (doa10∆): 2.09 ± 0.077 | protein stability index (pdr5∆): 2.06 ± 0.049 | protein stability index (san1∆): 1.59 ± 0.11 | protein stability index (ubr1∆): 2.43 ± 0.056

SISSVVSEDLLDERGHE [RPN4]
protein stability index (doa10∆): 3.11 ± 0.1 | protein stability index (pdr5∆): 2.99 ± 0.096 | protein stability index (san1∆): 2.85 ± 0.056 | protein stability index (ubr1∆): 2.79 ± 0.057

SKKKKNIKKKDTKDALS [RPC53]
protein stability index (doa10∆): 3.3 ± 0.17 | protein stability index (pdr5∆): 3.5 ± 0.14 | protein stability index (san1∆): 3.21 ± 0.089 | protein stability index (ubr1∆): 3.3 ± 0.21

RMSIKLLRLASKSTSMK [POP1]
protein stability index (doa10∆): 2.49 ± 0.043 | protein stability index (pdr5∆): 2.6 ± 0.047 | protein stability index (san1∆): 2.48 ± 0.053 | protein stability index (ubr1∆): 2.56 ± 0.04

LRQLLKERYTVEDELTE [RRI1]
protein stability index (doa10∆): 3.04 ± 0.097 | protein stability index (pdr5∆): 2.71 ± 0.15 | protein stability index (san1∆): 3.33 ± 0.076 | protein stability index (ubr1∆): 3.51 ± 0.084

KNREVVQVSKAGGLPMD [RRP45]
protein stability index (doa10∆): 3.04 ± 0.11 | protein stability index (pdr5∆): 2.84 ± 0.097 | protein stability index (san1∆): 2.54 ± 0.095 | protein stability index (ubr1∆): 3.28 ± 0.067

HLLYPPHIIAVACLFIT [SSN8]
protein stability index (doa10∆): 1.26 ± 0.053 | protein stability index (pdr5∆): 1.27 ± 0.038 | protein stability index (san1∆): 1.32 ± 0.1 | protein stability index (ubr1∆): 1.34 ± 0.052

NDNENIVNNDLPTTVVS [MED2]
protein stability index (doa10∆): 2.55 ± 0.053 | protein stability index (pdr5∆): 2.8 ± 0.05 | protein stability index (san1∆): 2.63 ± 0.042 | protein stability index (ubr1∆): 2.89 ± 0.039

GAKNIEITVVKPDSDIV [PRE6]
protein stability index (doa10∆): 2.54 ± 0.047 | protein stability index (pdr5∆): 2.46 ± 0.041 | protein stability index (san1∆): 2.57 ± 0.052 | protein stability index (ubr1∆): 2.67 ± 0.059

TTPYMTKYERARILGTR [RPO26]
protein stability index (doa10∆): 2.97 ± 0.14 | protein stability index (pdr5∆): 3.3 ± 0.091 | protein stability index (san1∆): 2.56 ± 0.18 | protein stability index (ubr1∆): 3.45 ± 0.09

QQQVLNKLRQQAIAKNN [SNF5]
protein stability index (doa10∆): 1.13 ± 0.066 | protein stability index (pdr5∆): 1.2 ± 0.072 | protein stability index (san1∆): 1.11 ± 0.13 | protein stability index (ubr1∆): 1.05 ± 0.052

GLPLGIAEEKMWSQFQT [YGR119C/NUP57]
protein stability index (doa10∆): 2.84 ± 0.14 | protein stability index (ubr1∆): 3.05 ± 0.19

KVEKVVKCKMSALQQIM [SNF2]
protein stability index (doa10∆): 2.86 ± 0.12 | protein stability index (pdr5∆): 3.05 ± 0.24 | protein stability index (san1∆): 2.95 ± 0.14 | protein stability index (ubr1∆): 3.13 ± 0.09

SADAPNPNNVNVQTQYR [RET1]
protein stability index (doa10∆): 2.92 ± 0.09 | protein stability index (pdr5∆): 2.84 ± 0.045 | protein stability index (san1∆): 2.77 ± 0.07 | protein stability index (ubr1∆): 2.79 ± 0.05

VSEKAFLLTQSKVSIEQ [RPN7]
protein stability index (doa10∆): 3.21 ± 0.18 | protein stability index (ubr1∆): 2.8 ± 0.14

KVVLKALFLSKINRPPV [RPL18A]
protein stability index (doa10∆): 2.28 ± 0.12 | protein stability index (pdr5∆): 1.53 ± 0.067 | protein stability index (san1∆): 1.41 ± 0.16 | protein stability index (ubr1∆): 1.46 ± 0.083

FENVKLLAEYDNIYRNL [MED4]
protein stability index (doa10∆): 2.43 ± 0.052 | protein stability index (pdr5∆): 2.64 ± 0.045 | protein stability index (san1∆): 2.62 ± 0.071 | protein stability index (ubr1∆): 2.31 ± 0.028

RQELQMQRQQQGISGSQ [SNF2]
protein stability index (doa10∆): 2.65 ± 0.049 | protein stability index (pdr5∆): 2.95 ± 0.046 | protein stability index (san1∆): 2.94 ± 0.042 | protein stability index (ubr1∆): 2.9 ± 0.041

NFEAALFAKSSSKKEYM [GAL11]
protein stability index (doa10∆): 1.99 ± 0.085 | protein stability index (pdr5∆): 2.52 ± 0.084 | protein stability index (san1∆): 2.17 ± 0.1 | protein stability index (ubr1∆): 2.67 ± 0.058

LQGIVIWDSQKFFIMIV [POP4]
protein stability index (doa10∆): 1.7 ± 0.059 | protein stability index (pdr5∆): 1.91 ± 0.064 | protein stability index (san1∆): 2.21 ± 0.076 | protein stability index (ubr1∆): 2.3 ± 0.045

TPLTFALPRGARTATVS [RPL14A]
protein stability index (doa10∆): 1.55 ± 0.063 | protein stability index (pdr5∆): 1.5 ± 0.061 | protein stability index (san1∆): 1.4 ± 0.1 | protein stability index (ubr1∆): 1.57 ± 0.049

LEIMQLVCGNDSSYQDI [RET1]
protein stability index (san1∆): 3.18 ± 0.081 | protein stability index (ubr1∆): 2.91 ± 0.17

RVNKNAPAVELHGNAKK [FAS2]
protein stability index (doa10∆): 2.74 ± 0.071 | protein stability index (pdr5∆): 3.14 ± 0.07 | protein stability index (san1∆): 3.2 ± 0.18 | protein stability index (ubr1∆): 2.93 ± 0.058

ALRPSDIFGANAASGSN [YOR098C/NUP1]
protein stability index (doa10∆): 2.67 ± 0.057 | protein stability index (pdr5∆): 1.99 ± 0.044 | protein stability index (san1∆): 2.22 ± 0.062 | protein stability index (ubr1∆): 2.52 ± 0.059

ISKKLQFSYLSSTLGID [PCI8]
protein stability index (doa10∆): 2.08 ± 0.055 | protein stability index (pdr5∆): 1.67 ± 0.054 | protein stability index (san1∆): 1.49 ± 0.097 | protein stability index (ubr1∆): 1.63 ± 0.044

YNSFPHSNLEKISNSKL [SIR4]
protein stability index (doa10∆): 2.77 ± 0.066 | protein stability index (pdr5∆): 2.65 ± 0.076 | protein stability index (san1∆): 2.61 ± 0.043 | protein stability index (ubr1∆): 2.76 ± 0.048

PEVVELCQKSPVMADLN [FAS2]
protein stability index (doa10∆): 2.63 ± 0.074 | protein stability index (pdr5∆): 2.69 ± 0.078 | protein stability index (san1∆): 2.48 ± 0.11 | protein stability index (ubr1∆): 2.73 ± 0.085

FQIVIEPLAIALSMGKS [ARP7]
protein stability index (doa10∆): 1.42 ± 0.054 | protein stability index (pdr5∆): 1.71 ± 0.059 | protein stability index (san1∆): 1.52 ± 0.092 | protein stability index (ubr1∆): 1.5 ± 0.07

VEDYLSSVTSDSMKYTI [RPC82]
protein stability index (doa10∆): 3.45 ± 0.22 | protein stability index (pdr5∆): 3.03 ± 0.083 | protein stability index (san1∆): 3.05 ± 0.14 | protein stability index (ubr1∆): 3.04 ± 0.093

ANKEKKKAEKAARKAEK [RPL24A]
protein stability index (doa10∆): 3.27 ± 0.059 | protein stability index (pdr5∆): 3.33 ± 0.065 | protein stability index (san1∆): 3.38 ± 0.036 | protein stability index (ubr1∆): 3.48 ± 0.055

ELTKEEAMYKLQLASLQ [SMC3]
protein stability index (doa10∆): 2.89 ± 0.1 | protein stability index (pdr5∆): 2.88 ± 0.068 | protein stability index (san1∆): 2.55 ± 0.084 | protein stability index (ubr1∆): 2.64 ± 0.053
